Test results: patent US20200054723A1 (ALLAKOS, published 2020)
Values joined by “and” are separate entries in the source; they are usually repeats but may differ in a detail not shown here. Identical values can stand only once.

Target: T1, recombinant human Siglec-8 extracellular domain (ECD) (human, UniProt Q9NYZ4 17-363)
T1 construct: extracellular domain; also called Siglec-8 ECD; full Siglec-8 ECD
Test: ELISA, coated Siglec-8 ECD
Experimental: Binding of recombinant human Siglec-8 extracellular domain (ECD) by chimeric 2E2 and chimeric 2C4 IgG1K antibodies was measured by ELISA. […] Three-fold serial dilutions of a chimeric antibody (ch2E2 or ch2C4) or mouse antibody (m2E2 or m2C4) in 0.2% BSA/TBS (starting concentration was 5000 ng/mL) was added to each coated well. The plate was incubated for 2 hours at room temperature and the wells were subsequently washed before addition of goat-anti-human Fc peroxidase conjugate (1:10000 dilution) or anti-mouse Fc peroxidase conjugate (1:30000 dilution) diluted in 0.2% BSA/TBS solution. The plate was incubated for 45 minutes at room temperature, followed by washing and addition of 30 μL K-blue HRP substrate (SkyBio Ltd) to each well. After incubation at room temperature for 15 minutes, the reaction was stopped by adding 10 μL of Red Stop solution (SkyBio Ltd) to each well. The optical density or the experimental samples was read at 650 nm using the ELISA reader PHERAStar FS (BMG Labtech).
The fully humanized antibody heavy and light chains were combined and compared with the chimeric antibody to determine if replacing the 4 Å and canonical framework residues and interface residues was sufficient to successfully humanize 2E2. Expi293 cells were co-transfected with combinations of different humanized light chain vectors in association with different humanized heavy chain vectors. Siglec-8 antigen was used to measure antibody binding by ELISA as described in Example 1.

T1 sequence (Q9NYZ4 17-363): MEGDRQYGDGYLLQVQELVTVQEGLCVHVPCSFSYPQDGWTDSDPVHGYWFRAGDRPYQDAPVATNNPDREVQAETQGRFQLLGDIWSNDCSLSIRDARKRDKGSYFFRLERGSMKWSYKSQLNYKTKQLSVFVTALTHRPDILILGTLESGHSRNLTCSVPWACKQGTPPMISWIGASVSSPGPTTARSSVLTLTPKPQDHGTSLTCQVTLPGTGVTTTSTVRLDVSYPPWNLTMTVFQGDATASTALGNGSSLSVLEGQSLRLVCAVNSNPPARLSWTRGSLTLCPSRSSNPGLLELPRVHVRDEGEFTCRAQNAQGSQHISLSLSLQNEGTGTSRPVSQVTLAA

EC50 | Binder
0.085 nM and 0.058 nM | HAKA (antibody, human IgG1, V domains shown, human IgG1/kappa) VH: EVQLVESGGGLVQPGGSLRLSCAASGFSLTIYGAHWVRQAPGKGLEWVSVIWAGGSTNYNSALMSRFTISKDNSKNTVYLQMNSLRAEDTAVYYCARDGSSPYYYSMEYWGQGTTVTVSS VL: EIVLTQSPATLSLSPGERATLSCSATSSVSYMHWFQQKPGQAPRLLIYSTSNLASGIPARFSGSGSGTDFTLTISSLEPEDFAVYYCQQRSSYPFTFGPGTKLDIK
0.066 nM and 0.051 nM | HBKF (antibody, human IgG1, V domains shown, human IgG1/kappa) VH: EVQLVESGGGLVQPGGSLRLSCAVSGFSLTIYGAHWVRQAPGKGLEWLGVIWAGGSTNYNSALMSRLSISKDNSKNTVYLQMNSLRAEDTAVYYCARDGSSPYYYSMEYWGQGTTVTVSS VL: EIVLTQSPATLSLSPGERATLSCSATSSVSYMHWFQQKPGQAPRLLIYSTSNLASGIPARFSGSGSGTDYTLTISSLEPEDFAVYYCQQRSSYPFTFGPGTKLDIK
0.055 nM and 0.07 nM | HBKA (antibody, human IgG1, V domains shown, human IgG1/kappa) VH: EVQLVESGGGLVQPGGSLRLSCAVSGFSLTIYGAHWVRQAPGKGLEWLGVIWAGGSTNYNSALMSRLSISKDNSKNTVYLQMNSLRAEDTAVYYCARDGSSPYYYSMEYWGQGTTVTVSS VL: EIVLTQSPATLSLSPGERATLSCSATSSVSYMHWFQQKPGQAPRLLIYSTSNLASGIPARFSGSGSGTDFTLTISSLEPEDFAVYYCQQRSSYPFTFGPGTKLDIK
0.066 nM | HAKC (antibody, human IgG1, V domains shown, human IgG1/kappa) VH: EVQLVESGGGLVQPGGSLRLSCAASGFSLTIYGAHWVRQAPGKGLEWVSVIWAGGSTNYNSALMSRFTISKDNSKNTVYLQMNSLRAEDTAVYYCARDGSSPYYYSMEYWGQGTTVTVSS VL: EIILTQSPATLSLSPGERATLSCSATSSVSYMHWFQQKPGQAPRLLIYSTSNLASGIPARFSGSGSGTDFTLTISSLEPEDFAVYYCQQRSSYPFTFGPGTKLDIK
0.061 nM | HBKE (antibody, human IgG1, V domains shown, human IgG1/kappa) VH: EVQLVESGGGLVQPGGSLRLSCAVSGFSLTIYGAHWVRQAPGKGLEWLGVIWAGGSTNYNSALMSRLSISKDNSKNTVYLQMNSLRAEDTAVYYCARDGSSPYYYSMEYWGQGTTVTVSS VL: EIVLTQSPATLSLSPGERATLSCSATSSVSYMHWFQQKPGQAPRLLIYSTSNLASGVPARFSGSGSGTDFTLTISSLEPEDFAVYYCQQRSSYPFTFGPGTKLDIK
0.212 nM | HBKG (antibody, human IgG1, V domains shown, human IgG1/kappa) VH: EVQLVESGGGLVQPGGSLRLSCAVSGFSLTIYGAHWVRQAPGKGLEWLGVIWAGGSTNYNSALMSRLSISKDNSKNTVYLQMNSLRAEDTAVYYCARDGSSPYYYSMEYWGQGTTVTVSS VL: EIVLTQSPATLSLSPGERATLSCSATSSVSYMHWYQQKPGQAPRLLIYSTSNLASGIPARFSGSGSGTDFTLTISSLEPEDFAVYYCQQRSSYPFTFGPGTKLDIK
0.086 nM | HAKFmut (antibody, human IgG1, V domains shown, human IgG1/kappa) VH: EVQLVESGGGLVQPGGSLRLSCAASGFSLTIYGAHWVRQAPGKGLEWVSVIWAGGSTNYNSALMSRFTISKDNSKNTVYLQMNSLRAEDTAVYYCARDGSSPYYYSMEYWGQGTTVTVSS VL: EIVLTQSPATLSLSPGERATLSCSATSSVSYMHWFQQKPGQAPRLLIYSTSNLASGIPARFSGSGSGTDYTLTISSLEPEDFAVYYCQQRSSYPYTFGPGTKLDIK
0.078 nM and 0.062 nM | HAKF (antibody, human IgG1, V domains shown, human IgG1/kappa) VH: EVQLVESGGGLVQPGGSLRLSCAASGFSLTIYGAHWVRQAPGKGLEWVSVIWAGGSTNYNSALMSRFTISKDNSKNTVYLQMNSLRAEDTAVYYCARDGSSPYYYSMEYWGQGTTVTVSS VL: EIVLTQSPATLSLSPGERATLSCSATSSVSYMHWFQQKPGQAPRLLIYSTSNLASGIPARFSGSGSGTDYTLTISSLEPEDFAVYYCQQRSSYPFTFGPGTKLDIK
0.189 nM | HAKG (antibody, human IgG1, V domains shown, human IgG1/kappa) VH: EVQLVESGGGLVQPGGSLRLSCAASGFSLTIYGAHWVRQAPGKGLEWVSVIWAGGSTNYNSALMSRFTISKDNSKNTVYLQMNSLRAEDTAVYYCARDGSSPYYYSMEYWGQGTTVTVSS VL: EIVLTQSPATLSLSPGERATLSCSATSSVSYMHWYQQKPGQAPRLLIYSTSNLASGIPARFSGSGSGTDFTLTISSLEPEDFAVYYCQQRSSYPFTFGPGTKLDIK
0.058 nM | HAKD (antibody, human IgG1, V domains shown, human IgG1/kappa) VH: EVQLVESGGGLVQPGGSLRLSCAASGFSLTIYGAHWVRQAPGKGLEWVSVIWAGGSTNYNSALMSRFTISKDNSKNTVYLQMNSLRAEDTAVYYCARDGSSPYYYSMEYWGQGTTVTVSS VL: EIVLTQSPATLSLSPGERATLSCSATSSVSYMHWFQQKPGQAPRLWIYSTSNLASGIPARFSGSGSGTDFTLTISSLEPEDFAVYYCQQRSSYPFTFGPGTKLDIK
0.052 nM | HAKE (antibody, human IgG1, V domains shown, human IgG1/kappa) VH: EVQLVESGGGLVQPGGSLRLSCAASGFSLTIYGAHWVRQAPGKGLEWVSVIWAGGSTNYNSALMSRFTISKDNSKNTVYLQMNSLRAEDTAVYYCARDGSSPYYYSMEYWGQGTTVTVSS VL: EIVLTQSPATLSLSPGERATLSCSATSSVSYMHWFQQKPGQAPRLLIYSTSNLASGVPARFSGSGSGTDFTLTISSLEPEDFAVYYCQQRSSYPFTFGPGTKLDIK
0.048 nM | HBKFmut (antibody, human IgG1, V domains shown, human IgG1/kappa) VH: EVQLVESGGGLVQPGGSLRLSCAVSGFSLTIYGAHWVRQAPGKGLEWLGVIWAGGSTNYNSALMSRLSISKDNSKNTVYLQMNSLRAEDTAVYYCARDGSSPYYYSMEYWGQGTTVTVSS VL: EIVLTQSPATLSLSPGERATLSCSATSSVSYMHWFQQKPGQAPRLLIYSTSNLASGIPARFSGSGSGTDYTLTISSLEPEDFAVYYCQQRSSYPYTFGPGTKLDIK
0.033 nM | HBKC (antibody, human IgG1, V domains shown, human IgG1/kappa) VH: EVQLVESGGGLVQPGGSLRLSCAVSGFSLTIYGAHWVRQAPGKGLEWLGVIWAGGSTNYNSALMSRLSISKDNSKNTVYLQMNSLRAEDTAVYYCARDGSSPYYYSMEYWGQGTTVTVSS VL: EIILTQSPATLSLSPGERATLSCSATSSVSYMHWFQQKPGQAPRLLIYSTSNLASGIPARFSGSGSGTDFTLTISSLEPEDFAVYYCQQRSSYPFTFGPGTKLDIK
0.071 nM | HAKB (antibody, human IgG1, V domains shown, human IgG1/kappa) VH: EVQLVESGGGLVQPGGSLRLSCAASGFSLTIYGAHWVRQAPGKGLEWVSVIWAGGSTNYNSALMSRFTISKDNSKNTVYLQMNSLRAEDTAVYYCARDGSSPYYYSMEYWGQGTTVTVSS VL: EIILTQSPATLSLSPGERATLSCSATSSVSYMHWFQQKPGQAPRLWIYSTSNLASGVPARFSGSGSGTDYTLTISSLEPEDFAVYYCQQRSSYPFTFGPGTKLDIK
0.056 nM | HCKA (antibody, human IgG1, V domains shown, human IgG1/kappa) VH: EVQLVESGGGLVQPGGSLRLSCAVSGFSLTIYGAHWVRQAPGKGLEWVSVIWAGGSTNYNSALMSRFTISKDNSKNTVYLQMNSLRAEDTAVYYCARDGSSPYYYSMEYWGQGTTVTVSS VL: EIVLTQSPATLSLSPGERATLSCSATSSVSYMHWFQQKPGQAPRLLIYSTSNLASGIPARFSGSGSGTDFTLTISSLEPEDFAVYYCQQRSSYPFTFGPGTKLDIK
0.039 nM | HBKD (antibody, human IgG1, V domains shown, human IgG1/kappa) VH: EVQLVESGGGLVQPGGSLRLSCAVSGFSLTIYGAHWVRQAPGKGLEWLGVIWAGGSTNYNSALMSRLSISKDNSKNTVYLQMNSLRAEDTAVYYCARDGSSPYYYSMEYWGQGTTVTVSS VL: EIVLTQSPATLSLSPGERATLSCSATSSVSYMHWFQQKPGQAPRLWIYSTSNLASGIPARFSGSGSGTDFTLTISSLEPEDFAVYYCQQRSSYPFTFGPGTKLDIK
0.056 nM | HBKB (antibody, human IgG1, V domains shown, human IgG1/kappa) VH: EVQLVESGGGLVQPGGSLRLSCAVSGFSLTIYGAHWVRQAPGKGLEWLGVIWAGGSTNYNSALMSRLSISKDNSKNTVYLQMNSLRAEDTAVYYCARDGSSPYYYSMEYWGQGTTVTVSS VL: EIILTQSPATLSLSPGERATLSCSATSSVSYMHWFQQKPGQAPRLWIYSTSNLASGVPARFSGSGSGTDYTLTISSLEPEDFAVYYCQQRSSYPFTFGPGTKLDIK
0.115 nM | mouse 2C4 antibody (antibody, mouse IgG1, kappa, murine IgG1/kappa; also called mo2C4; m2C4) heavy: QVQLKRASGPGLVAPSQSLSITCTVSGFSLTIYGAHWVRQPPGKGLEWLGVIWAGGSTNYNSALMSRLSISKDNSKSQVFLKINSLQTDDTALYYCARDGSSPYYYSMEYWGQGTSVTVSSAKTTPPSVYPLAPGSAAQTNSMVTLGCLVKGYFPEPVTVTWNSGSLSSGVHTFPAVLESDLYTLSSSVTVPSSPRPSETVTCNVAHPASSTKVDKKIVPRDCGCKPCICTVPEVSSVFIFPPKPKDVLTITLTPKVTCVVVDISKDDPEVQFSWFVDDVEVHTAQTQPREEQFNSTFRSVSELPIMHQDWLNGKEFKCRVNSAAFPAPIEKTISKTKGRPKAPQVYTIPPPKEQMAKDKVSLTCMITDFFPEDITVEWQWNGQPAENYKNTQPIMNTNGSYFVYSKLNVQKSNWEAGNTFTCSVLHEGLHNHHTEKSLSHSPG light: EIILTQSPAIMSASPGEKVSITCSATSSVSYMHWFQQKPGTSPKLWIYSTSNLASGVPVRFSGSGSGTSYSLTISRMEAEDAATYYCQQRSSYPFTFGSGTKLEIKADAAPTVSIFPPSSEQLTSGGASVVCFLNNFYPKDINVKWKIDGSERQNGVLNSWTDQDSKDSTYSMSSTLTLTKDEYERHNSYTCEATHKTSTSPIVKSFNRNEC
